What was measured:
[1] = substrate: O=CC(=O)O; assay: spectrophotometric assay of pyruvate, coupled lactate dehydrogenase; type: biochemical, Homo sapiens; settings: saturating L-alanine as co-substrate; saturating PLP
dynamic light scattering = biological target: the molecule itself; assay: dynamic light scattering
[2] = substrate: C[C@H](N)C(=O)O; assay: spectrophotometric assay of pyruvate, coupled lactate dehydrogenase; type: biochemical, Homo sapiens; settings: saturating glyoxylate as co-substrate; saturating PLP

Protein	stoichiometry N (dynamic light scattering)	further results
AGT-Mi (Homo sapiens; G161S/I340M/P11L) (protein) MASHKLLVTPLKALLKPLSIPNQLLLGPGPSNLPPRIMAAGGLQMIGSMSKDMYQIMDEIKEGIQYVFQTRNPLTLVISGSGHCALEAALVNVLEPGDSFLVGANGIWGQRAVDIGERIGARVHPMTKDPGGHYTLQEVEEGLAQHKPVLLFLTHGESSTSVLQPLDGFGELCHRYKCLLLVDSVASLGGTPLYMDRQGIDILYSGSQKALNAPPGTSLISFSDKAKKKMYSRKTKPFSFYLDIKWLANFWGCDDQPRMYHHTIPVISLYSLRESLALIAEQGLENSWRQHREAAAYLHGRLQALGLQLFVKDPALRLPTVTTVAVPAGYDWRDIVSYVMDHFDIEIMGGLGPSTGKVLRIGLLGCNATRENVDRVTEALRAALQHCPKKKL	–	Km [1]: 630 ± 70 µM; kcat [1]: 58 ± 2 s⁻¹; kcat/Km [1]: 92000 ± 2000 M⁻¹ s⁻¹
alanine:glyoxylate aminotransferase variant W108R on the minor allele (enzyme, human, UniProt P21549 1-392, looked up, holo-form: pyridoxal 5'-phosphate in Schiff base linkage with the lysine at position 209; apo-form: without PLP) MASHKLLVTPLKALLKPLSIPNQLLLGPGPSNLPPRIMAAGGLQMIGSMSKDMYQIMDEIKEGIQYVFQTRNPLTLVISGSGHCALEAALVNVLEPGDSFLVGANGIRGQRAVDIGERIGARVHPMTKDPGGHYTLQEVEEGLAQHKPVLLFLTHGESSTGVLQPLDGFGELCHRYKCLLLVDSVASLGGTPLYMDRQGIDILYSGSQKALNAPPGTSLISFSDKAKKKMYSRKTKPFSFYLDIKWLANFWGCDDQPRMYHHTIPVISLYSLRESLALIAEQGLENSWRQHREAAAYLHGRLQALGLQLFVKDPALRLPTVTTVAVPAGYDWRDIVSYVMDHFDIEIMGGLGPSTGKVLRIGLLGCNATRENVDRVTEALRAALQHCPKKKL	2	–
AGT-Ma (Homo sapiens; P319L) (protein) MASHKLLVTPPKALLKPLSIPNQLLLGPGPSNLPPRIMAAGGLQMIGSMSKDMYQIMDEIKEGIQYVFQTRNPLTLVISGSGHCALEAALVNVLEPGDSFLVGANGIWGQRAVDIGERIGARVHPMTKDPGGHYTLQEVEEGLAQHKPVLLFLTHGESSTGVLQPLDGFGELCHRYKCLLLVDSVASLGGTPLYMDRQGIDILYSGSQKALNAPPGTSLISFSDKAKKKMYSRKTKPFSFYLDIKWLANFWGCDDQPRMYHHTIPVISLYSLRESLALIAEQGLENSWRQHREAAAYLHGRLQALGLQLFVKDPALRLLTVTTVAVPAGYDWRDIVSYVIDHFDIEIMGGLGPSTGKVLRIGLLGCNATRENVDRVTEALRAALQHCPKKKL	–	Km [1]: 110 ± 20 µM; kcat [1]: 26.2 ± 0.7 s⁻¹; kcat/Km [1]: 238000 ± 44000 M⁻¹ s⁻¹
alanine:glyoxylate aminotransferase variant G350D on the minor allele (enzyme, human, UniProt P21549 1-392, looked up, holo-form: pyridoxal 5'-phosphate in Schiff base linkage with the lysine at position 209; apo-form: without PLP) MASHKLLVTPLKALLKPLSIPNQLLLGPGPSNLPPRIMAAGGLQMIGSMSKDMYQIMDEIKEGIQYVFQTRNPLTLVISGSGHCALEAALVNVLEPGDSFLVGANGIWGQRAVDIGERIGARVHPMTKDPGGHYTLQEVEEGLAQHKPVLLFLTHGESSTGVLQPLDGFGELCHRYKCLLLVDSVASLGGTPLYMDRQGIDILYSGSQKALNAPPGTSLISFSDKAKKKMYSRKTKPFSFYLDIKWLANFWGCDDQPRMYHHTIPVISLYSLRESLALIAEQGLENSWRQHREAAAYLHGRLQALGLQLFVKDPALRLPTVTTVAVPAGYDWRDIVSYVMDHFDIEIMGDLGPSTGKVLRIGLLGCNATRENVDRVTEALRAALQHCPKKKL	2	–
AGT-Ma (Homo sapiens; S218L) (protein) MASHKLLVTPPKALLKPLSIPNQLLLGPGPSNLPPRIMAAGGLQMIGSMSKDMYQIMDEIKEGIQYVFQTRNPLTLVISGSGHCALEAALVNVLEPGDSFLVGANGIWGQRAVDIGERIGARVHPMTKDPGGHYTLQEVEEGLAQHKPVLLFLTHGESSTGVLQPLDGFGELCHRYKCLLLVDSVASLGGTPLYMDRQGIDILYSGSQKALNAPPGTLLISFSDKAKKKMYSRKTKPFSFYLDIKWLANFWGCDDQPRMYHHTIPVISLYSLRESLALIAEQGLENSWRQHREAAAYLHGRLQALGLQLFVKDPALRLPTVTTVAVPAGYDWRDIVSYVIDHFDIEIMGGLGPSTGKVLRIGLLGCNATRENVDRVTEALRAALQHCPKKKL	–	Km [2]: 29000 ± 6000 µM; kcat [2]: 2.7 ± 0.1 s⁻¹; kcat/Km [2]: 90 ± 20 M⁻¹ s⁻¹
alanine:glyoxylate aminotransferase variant G161S on the minor allele (enzyme, human, UniProt P21549 1-392, looked up, holo-form: pyridoxal 5'-phosphate in Schiff base linkage with the lysine at position 209; apo-form: without PLP) MASHKLLVTPLKALLKPLSIPNQLLLGPGPSNLPPRIMAAGGLQMIGSMSKDMYQIMDEIKEGIQYVFQTRNPLTLVISGSGHCALEAALVNVLEPGDSFLVGANGIWGQRAVDIGERIGARVHPMTKDPGGHYTLQEVEEGLAQHKPVLLFLTHGESSTSVLQPLDGFGELCHRYKCLLLVDSVASLGGTPLYMDRQGIDILYSGSQKALNAPPGTSLISFSDKAKKKMYSRKTKPFSFYLDIKWLANFWGCDDQPRMYHHTIPVISLYSLRESLALIAEQGLENSWRQHREAAAYLHGRLQALGLQLFVKDPALRLPTVTTVAVPAGYDWRDIVSYVMDHFDIEIMGGLGPSTGKVLRIGLLGCNATRENVDRVTEALRAALQHCPKKKL	2	–
alanine:glyoxylate aminotransferase variant S187F on the major allele (enzyme, human, UniProt P21549 1-392, looked up, holo-form: pyridoxal 5'-phosphate in Schiff base linkage with the lysine at position 209; apo-form: without PLP) MASHKLLVTPPKALLKPLSIPNQLLLGPGPSNLPPRIMAAGGLQMIGSMSKDMYQIMDEIKEGIQYVFQTRNPLTLVISGSGHCALEAALVNVLEPGDSFLVGANGIWGQRAVDIGERIGARVHPMTKDPGGHYTLQEVEEGLAQHKPVLLFLTHGESSTGVLQPLDGFGELCHRYKCLLLVDSVAFLGGTPLYMDRQGIDILYSGSQKALNAPPGTSLISFSDKAKKKMYSRKTKPFSFYLDIKWLANFWGCDDQPRMYHHTIPVISLYSLRESLALIAEQGLENSWRQHREAAAYLHGRLQALGLQLFVKDPALRLPTVTTVAVPAGYDWRDIVSYVIDHFDIEIMGGLGPSTGKVLRIGLLGCNATRENVDRVTEALRAALQHCPKKKL	2	–
alanine:glyoxylate aminotransferase variant P319L on the major allele (enzyme, human, UniProt P21549 1-392, looked up, holo-form: pyridoxal 5'-phosphate in Schiff base linkage with the lysine at position 209; apo-form: without PLP) MASHKLLVTPPKALLKPLSIPNQLLLGPGPSNLPPRIMAAGGLQMIGSMSKDMYQIMDEIKEGIQYVFQTRNPLTLVISGSGHCALEAALVNVLEPGDSFLVGANGIWGQRAVDIGERIGARVHPMTKDPGGHYTLQEVEEGLAQHKPVLLFLTHGESSTGVLQPLDGFGELCHRYKCLLLVDSVASLGGTPLYMDRQGIDILYSGSQKALNAPPGTSLISFSDKAKKKMYSRKTKPFSFYLDIKWLANFWGCDDQPRMYHHTIPVISLYSLRESLALIAEQGLENSWRQHREAAAYLHGRLQALGLQLFVKDPALRLLTVTTVAVPAGYDWRDIVSYVIDHFDIEIMGGLGPSTGKVLRIGLLGCNATRENVDRVTEALRAALQHCPKKKL	2	–
alanine:glyoxylate aminotransferase variant G161C on the minor allele (enzyme, human, UniProt P21549 1-392, looked up, holo-form: pyridoxal 5'-phosphate in Schiff base linkage with the lysine at position 209; apo-form: without PLP) MASHKLLVTPLKALLKPLSIPNQLLLGPGPSNLPPRIMAAGGLQMIGSMSKDMYQIMDEIKEGIQYVFQTRNPLTLVISGSGHCALEAALVNVLEPGDSFLVGANGIWGQRAVDIGERIGARVHPMTKDPGGHYTLQEVEEGLAQHKPVLLFLTHGESSTCVLQPLDGFGELCHRYKCLLLVDSVASLGGTPLYMDRQGIDILYSGSQKALNAPPGTSLISFSDKAKKKMYSRKTKPFSFYLDIKWLANFWGCDDQPRMYHHTIPVISLYSLRESLALIAEQGLENSWRQHREAAAYLHGRLQALGLQLFVKDPALRLPTVTTVAVPAGYDWRDIVSYVMDHFDIEIMGGLGPSTGKVLRIGLLGCNATRENVDRVTEALRAALQHCPKKKL	2	–
alanine:glyoxylate aminotransferase variant S218L on the major allele (enzyme, human, UniProt P21549 1-392, looked up, holo-form: pyridoxal 5'-phosphate in Schiff base linkage with the lysine at position 209; apo-form: without PLP) MASHKLLVTPPKALLKPLSIPNQLLLGPGPSNLPPRIMAAGGLQMIGSMSKDMYQIMDEIKEGIQYVFQTRNPLTLVISGSGHCALEAALVNVLEPGDSFLVGANGIWGQRAVDIGERIGARVHPMTKDPGGHYTLQEVEEGLAQHKPVLLFLTHGESSTGVLQPLDGFGELCHRYKCLLLVDSVASLGGTPLYMDRQGIDILYSGSQKALNAPPGTLLISFSDKAKKKMYSRKTKPFSFYLDIKWLANFWGCDDQPRMYHHTIPVISLYSLRESLALIAEQGLENSWRQHREAAAYLHGRLQALGLQLFVKDPALRLPTVTTVAVPAGYDWRDIVSYVIDHFDIEIMGGLGPSTGKVLRIGLLGCNATRENVDRVTEALRAALQHCPKKKL	2	–
alanine:glyoxylate aminotransferase variant S158L on the major allele (enzyme, human, UniProt P21549 1-392, looked up, holo-form: pyridoxal 5'-phosphate in Schiff base linkage with the lysine at position 209; apo-form: without PLP) MASHKLLVTPPKALLKPLSIPNQLLLGPGPSNLPPRIMAAGGLQMIGSMSKDMYQIMDEIKEGIQYVFQTRNPLTLVISGSGHCALEAALVNVLEPGDSFLVGANGIWGQRAVDIGERIGARVHPMTKDPGGHYTLQEVEEGLAQHKPVLLFLTHGELSTGVLQPLDGFGELCHRYKCLLLVDSVASLGGTPLYMDRQGIDILYSGSQKALNAPPGTSLISFSDKAKKKMYSRKTKPFSFYLDIKWLANFWGCDDQPRMYHHTIPVISLYSLRESLALIAEQGLENSWRQHREAAAYLHGRLQALGLQLFVKDPALRLPTVTTVAVPAGYDWRDIVSYVIDHFDIEIMGGLGPSTGKVLRIGLLGCNATRENVDRVTEALRAALQHCPKKKL	2	–
alanine:glyoxylate aminotransferase variant D183N on the major allele (enzyme, human, UniProt P21549 1-392, looked up, holo-form: pyridoxal 5'-phosphate in Schiff base linkage with the lysine at position 209; apo-form: without PLP) MASHKLLVTPPKALLKPLSIPNQLLLGPGPSNLPPRIMAAGGLQMIGSMSKDMYQIMDEIKEGIQYVFQTRNPLTLVISGSGHCALEAALVNVLEPGDSFLVGANGIWGQRAVDIGERIGARVHPMTKDPGGHYTLQEVEEGLAQHKPVLLFLTHGESSTGVLQPLDGFGELCHRYKCLLLVNSVASLGGTPLYMDRQGIDILYSGSQKALNAPPGTSLISFSDKAKKKMYSRKTKPFSFYLDIKWLANFWGCDDQPRMYHHTIPVISLYSLRESLALIAEQGLENSWRQHREAAAYLHGRLQALGLQLFVKDPALRLPTVTTVAVPAGYDWRDIVSYVIDHFDIEIMGGLGPSTGKVLRIGLLGCNATRENVDRVTEALRAALQHCPKKKL	2	–

From publication PMC3271384 (Molecular Genetics and Metabolism, 2012)
